Reference: the DeepSol protein solubility set

assay: soluble on expression in E. coli; label from the status in PepcDB or PDB records

Sequence	soluble on expression in E. coli
TELTLKPGTLTLAQLRAIHAAPVRLQLDASAAPAIDASVACVEQIIAEDRTAYGINTGFGLLASTRIASHDLENLQRSLVLSHAAGIGAPLDDDLVRLIMVLKINSLSRGFSGIRRKVIDALIALVNAEVYPHIPLKGSVGASGDLAPLAHMSLVLLGEGKARYKGQWLSATEALAVAGLEPLTLAAKEGLALLNGTQASTAYALRGLFYAEDLYAAAIACGGLSVEAVLGSRSPFDARIHEARGQRGQIDTAACFRDLLGDSSEVSLSHKNADKVQDPYSLRCQPQVMGACLTQLRQAAEVLGIEANAVSDNPLVFAAEGDVISGGNFHAEPVAMAADNLALAIAEIGSLSERRISLMMDKHMSQLPPFLVENGGVNSGFMIAQVTAAALASENKALSHPHSVDSLPTSANQEDHVSMAPAAGKRLWEMAENTRGVLAIEWLGACQGLDLRKGLKTSAKLEKARQALRSEVAHYDRDRFFAPDIEKAVELLAKGSLTGLLPAGVLPSL	soluble
GSGSGSDIEAYLERIGYKKSRNKLDLETLTDILQHQIRAVPFENLNIHCGDAMDLGLEAIFDQVVRRNRGGWCLQVNHLLYWALTTIGFETTMLGGYVYSTPAKKYSTGMIHLLLQVTIDGRNYIVDAGSGRSYQMWQPLELISGKDQPQVPCVFRLTEENGFWYLDQIRREQYIPNEEFLHSDLLEDSKYRKIYSFTLKPRTIEDFESMNTYLQTSPSSVFTSKSFCSLQTPDGVHCLVGFTLTHRRFNYKDNTDLIEFKTLSEEEIEKVLKNIFNISLQRKLVPKHGDRFFTI	soluble
MGSDKIHHHHHHMDWLSKHYQQQKGYDELVGEGAVPRLPAAPLFDYLSTLDSSELRARRQAADAAILAMGITFTVYSEAGDIDRAWPFDIIPRILSRREWMRIEEGLKQRLQALNLFIDDIYNAQRIVVDGVFPAEVLASSRNFREACRGVHPPFGVWAHICGSDLVRDADGTVYVLEDNLRVPSGVSYMLENRQIMKRLFPELFKSSTILPVDDYPNRLYDTLAALSPREGERPVVAVLTPGIYNSAYFEHSYLAQQMGAYLAEGADFFVSRDDIVYLRTISGPQRVDVIYRRIDDEYMDPEVFFTDSALGIPGLLRAWRRGTVAIANAPGAGVADDKVVYAFVPDIIRYYLGAEPILPNVPTYLCMREADRDYVLSHLHELVVKPANESGGYGMLIGPRATSEERGRFAELIAANPRNYIAQPTLNLSTAPTLVEDHLEARHLDLRPFILQADKLYVTTGGLTRVAMQPGSLVVNSSQGGGSKDTWIVDEEAPCFRA	not soluble
MSTNEITKRLPNLTSRRALLLYSLPVLVAIGVSHSLKESSLTKTIALNLPESQVVERILDATTAEVVTPPNFEYQIQAGDNLSTIFSQLGFGYSSLMKVMETDLNYLALDTLKPGNTLRFWRNDATGELEKMELQFSIADKVVYQLNSDGGYDFTDISIPGVWRQEPLVGVIQGSFSSSANRLGLSSAEISQVVSLLKEQVNFGRDLRAGDRFEVVRRSQTINGVSTGKNEIEAIKIYNRGREITAYLHTDGQFYNAKGESLQRAFQRYPVSRSWRISSGFNPNRLHPVTGRVAP	not soluble
METETYTNSSHLGRKIERIRRLRGMTQTDLGELLGVTKQAISKMEQAEKIDDEKLKQVATALGVTEEGLKKFTEETVLYYTSNFYENCHVSASNIGPITHVENLNHFSMDQAVKLFEELLKIERDKYDKGKEESAK	not soluble
SAAPRVFPLSCAVQQYAWGKMGSNSEVARLLASSDPLAQIAEDKPYAELWMGTHPRGDAKILDNRISQKTLSQWIAENQDSLGSKVKDTFNGNLPFLFKVLSVETPLSIQAHPNKELAEKLHLQAPQHYPDANHKPEMAIALTPFQGLCGFRPVEEIVTFLKTAAGNNMEDIFGELLLQLHQQYPGDIGCFAIYFLNLLTLKPGEAMFLEANVPHAYLKGDCVECMACSDNTVRAGLTPKFIDVPTLCEMLSYTPSSSKDRLFLPTRSQEDPYLSIYDPPVPDFTIMKTEVPGSVTEYKVLALDSASILLMVQGTVIASTPTTQTPIPLQRGGVLFIGANESVSLKLTEPKDLLIFRACCLL	soluble
MKSYMTQRLDEYRDGNEDKGRLLVSCPDQPGIVSAVSAFLFEHGANIIESNQYTTDPEGGRFFLRIEFDCAGIREKKSSLQAAFASVAEKFDMTWSLTLASELKRVAIFVSKNLHCLHELIWEWQTGNLMAEIAVVISNHEEARELVERLNIPFHYMKANKDIRAEVEKKQLELLEQYDVDVIVLARYMQILTPDFVSAHPNRIINIHHSFLPAFIGANPYKRAYERGVKLIGATSHYVTNDLDEGPIIEQDIKRVDHRDNAETLKNIGRTIERSVLARAVKWHLEDRVIVHENK	not soluble
MGSDKIHHHHHHMTVKAKRFRIGVEGATTDGREIQREWLVQMAASYNPTVYTALINLEHIKSYLPESTFNRYGRVTGLVAEEIQDGPLAGKMALYADIEPTDALVELVKKGQKLFTSMEVSTKFADTGKAYLVGLGATDDPASLGTEMLAFSASAAHNPLANRKQNPENLFSEAVETLIELEEVQDEKPSLFARVTALFTKKEQTDEARFSDVHKAVELVASEQQNLSERTDKSLSEQDKRLSELESSLQEQLAAFAELEQKLSSEDSRKDYRQRAPGGDAPAGTLTNC	not soluble
MAGLVDRVSGARLDPAAEAEIRYLEAMIARLEAGEEDPEDFRVFRLKNGIYGIRGRPEHHMIRIKLPVGRITPEGLRVLADVAERYAENRLAHVTTRQAVQLHHVHRRDVPKVLRAVNAVGLTTREACGHSIRAITCCPYAGVSPEEPFDVTPYAEAAYRYFLRHPVGQNLPRKFKIAFEGCAADHARTPIHDIGVVAALEGGKRGFRVYVGGGLGAAPMSAELLEAFTPEEDLLPTMLAIVRLFDRYGNRKVLTQARLKFLVKKWGIAAFREAVREERRLVKLTASGEDLEAWAPPPEPEPPRLPSPPKKPFSFAPGFDAWRRTNLFKQKQEGFYTVTVRLPLGDITPEGLRALAAIAETYAAEVRSAISQNLLLRFVPEEALGGLYEALLEAGLALPEAHTLLDITRCPGADTCNLAITRSRGLAQALEAHLATLPLAQDPGAKAIGVKISGCPNSCGQHHIADIGFYGSSRKVGEREVPHYVLLLGGRTREGEARFGQVVGRLPARRVPEAVERILKRYLEERQNGESFQAYLDRVGAASFKPLLQELQEVPPYEEAPEFYQDLGAEGEAFSVQLGRGECAV	soluble
MRLTTKGRYAVTAMLDLALHAQQGPVSLADISERQGISLSYLEQLFAKLRRGNLVTSVRGPGGGYQLSRHMSGIHVAQVIDAVNESVDATRCQGQGDCHSGDTCLTHHLWCDLSLQIHEFLSGISLADLVSRQEVQEVALRQDERRCSGKTPRLDKIEASAID	not soluble
MSVKKKTQVRTGKMVRELMLADEDVNASLIMVYSENGVNAEIKIEGLTPKCNEELFLSGNVDWNKSVIYKIVDFTGNAEVGKVTLTAMNKNNVSLEIERVMWSKENKEAAEQEETQVEAAPKKEVVVEAPKAITPAPKPVTRVETPAMAPKPTPVPTPKPVSVEAAVELVTPAPVKKAVPTPVTKQETAPVAPAKPKQPALTETNSKLQENYVKLVKKTIEVCQDYELGIDIDDSIESLKEELQSQGISVTFDKEIMDVVNRLRSLQDKGIKVEKVLNLL	not soluble
MGSDKIHHHHHHMKISGHTSVVVAEKLLSEAKFSNLTQSAVVMISQRLCLGIILTGFITNQALAAEPKQSVVPISSVLATNYNKTQIHVTPVHSLVPKLSTKRANFKQETTTQDSVYLADWVLDSGDNQQMPFAIVDKKAAKVYVFDALGQLTGAAPALLGLAVGDDSIPNIGNMALASIKPEQRTTPAGRFVVALGKNIHNKEVLWIDYDAAISLHRVVTSSPKERRLQRLESQNLLERRISYGCINVPVNFYDQVVSPAFTGTNGVVYVLPDTRSIQEVFGSYSEPPRVYRRQIYLSQAAMPDRVKLS	not soluble
MQPQSVLHSGYLHPLLRAWQTATTTLNASNLIYPIFVTDVPDDIQPITSLPGVARYGVKRLEEMLRPLVEEGLRCVLIFGVPSRVPKDERGSAADSEESPAIEAIHLLRKTFPNLLVACDVCLCPYTSHGHCGLLSENGAFRAEESRQRLAEVALAYAKAGCQVVAPSDMMDGRVEAIKEALMAHGLGNRVSVMSYSAKFASCFYGPFRDAAKSSPAFGDRRCYQLPPGARGLALRAVDRDVREGADMLMVKPGMPYLDIVREVKDKHPDLPLAVYHVSGEFAMLWHGAQAGAFDLKAAVLEAMTAFRRAGADIIITYYTPQLLQWLKEE	soluble
ELLPEIFRQTVEHAPIAISITDLKANILYANRAFRTITGYGSEEVLGKNESILSNGTTPRLVYQALWGRLAQKKPWSGVLVNRRKDKTLYLAELTVAPVLNEAGETIYYLGMHRDTSELH	soluble
MAHHHHHHMAVGKNKRTSKGKKGGKKKVTDVFTKKEWYDLKAPKMFLVRNFGKTLVTKTIGKKLATDSLKGRIYEVNLADLNNDEDQAHKKIKLSCDHIINRDCYTDFCGLSITRDKLCSLIRKGYTLIEGHTDVKTLDNYHLRMFCIAFTKKRQNQTKSTCYAQTSQIKKIRKKMVDIMTAEASKVLLKDLVKKFIPESIGKEIEKQCKKIYPLQNVLIRKVKILKRPKLDISKLMELHTDPKEESGKNVNALPESKEATNILTAELKH	not soluble
MAHHHHHHMADQIYHKLINENIKMLCNDLLPNEKKDEKKKEYYNNMNINCSSKCEELCNNINDRLQKIKDIVHLRSTKANGILIETLNYIKEYIKEIEKYIQIFNKLIYEENRAYLFIEEIFNTLENQNQNIQKIYNICSKNIVITKNNNELILKNPKACSSLSYEFVNNLMNSGQQKNNNNNNNKKEQIVQQHNIENQGANYLN	not soluble
TKDWDWNIEINLGHNKNKLKKLYKTKNAEGQFVEKPIIISDGTSIAGTAKRVLQPGYPCDTYYLKEWAGVNPENGAPQWYKTVENEDGTLSRQKTSNYSEADQVKCGSSSPDIFGGFSTVLRWKDIDLNAVFGYSVGGQIYNYSRQEYDSDGAYNDRNQMKLQKGWNRWEKPGDIATHPVASYSNTSKSNSSSSRYLEKNDYLKLRSLSIGYNLKLPQYYINNMRIFFTGENLFCVTNYSGVDPEIPASDGSVIGTALPSVYPTVRKFMFGLNLTF	not soluble
MGSDKIHHHHHHMHSPRELALLYRQGKNITQLMRDERGLIHNSNEIIEISYDLQAGSYIESMGEAWMAEHNAEYCQQLAKVILSLCNPDSILEAGIGEATTLADLLPHLSKKISSYGFDISWSRVAYGKQWLQQQGISNTVLCTGNLCHIPFADNAVELVYTSHSLEPNGGNEAAILKELYRVTSKFLVLLEPGYELANKDAKHRMEQHGYCRNIKSIAQSLGYRILLHEFFPSSVNPLNPTVITIIEKPPSFEPAKHILACPKYKTPLENIENMLFSPESLMVYPIVGGIPCLGINNGLVASKFRELISKG	not soluble
ETVLADRFERLVELVTMMGDQGELPIAMALANVVPCSQWDELARVLVTLFDSRHLLYQLLWNMFSKEVELADSMQTLFRGNSLASKIMTFCFKVYGATYLQKLLDPLLRIVITSSDWQHVSFEVDPTRLEPSESLEENQRNLLQMTEKFFHAIISSSSEFPPQLRSVCHCLYQVVSQRFPQNSIGAVGSAMFLRFINPAIVSPYEAGILDKKPPPIIERGLKLMSKILQSIANHVLFTKEEHMRPFNDFVKSNFDAARRFFLDIASDCPTSDAVNHSLSFISDGNVLALHRLLWNNQEKIGQYLSSNRDHKAVGRRPFDKMATLLAYLGPPEH	soluble
MNVLFTSVPQEDVPFYQEALKDLSLKIYTTDVSKVPENELKKAELISVFVYDKLTEELLSKMPRLKLIHTRSVGFDHIDLDYCKKKGILVTHIPAYSPESVAEHTFAMILTLVKRLKRIEDRVKKLNFSQDSEILARELNRLTLGVIGTGRIGSRVAMYGLAFGMKVLCYDVVKREDLKEKGCVYTSLDELLKESDVISLHVPYTKETHHMINEERISLMKDGVYLINTARGKVVDTDALYRAYQRGKFSGLGLDVFEDEEILILKKYTEGKATDKNLKILELACKDNVIITPHIAYYTDKSLERIREETVKVVKAFVKGDLEQIKGNFVVGPS	soluble
